According to patent US20080280298A1, “SATB1: A DETERMINANT OF MORPHOGENESIS AND TUMOR METASTASIS” (The Regents of the University of California, priority 2005, published 2008):

What was measured:
SATB1 = SATB1 expression in MDA-MB-231 cells stably transfected with shRNA (Western blot, real-time RT-PCR); type: cell-based, human; details: for Expression of SATB1 was lowered by / SATB1 expression levels: MDA-MB-231 cells stably expressing the shRNA; for SATB1 expression levels: remaining expression; for SATB1 expression (in words): Western blot and quantitative RT-PCR, compared to parental MDA-MB-231 cells
Experimental: It was then tested whether suppression of SATB1 level in the highly metastatic MDA-MB-231 cells would affect their aggressiveness. Short hairpin-interfering RNAs (shRNA) were successfully designed to target SATB1 expression and are identified herein as SEQ ID NOs: 4-7.
Two shRNAs were designed according to SATB1 sequence (GenBank Accession No. NM_002971, hereby incorporated by reference) using siRNA Target Finder (Ambion, Austin, Tex.); The sequences of each oligoduplex were targeted as follows: shRNA2423, 5′-GGATTTGGAAGAGAGTGTC-3′ (SEQ ID NO: 8), or shRNA2595, 5′-GTCCACCTTGTCTTCTCTC-3′ (SEQ ID NO: 9). The oligoduplexes were cloned into the plasmid pSUPER (Oligoengine, Seattle, Wash.). Prepared DNAs were transfected into the aggressive breast cancer cell line MDA-MB-231 by lipofectamine 2000 (Invitrogen) and successfully transfected cells were selected by puromycin at 2 μg/ml or G418 at 1.5 mg/ml from 24 h after transfection. Single MDA-MB-231 cell clone stably expressing either shRNA2423 or shRNA2595 is designated SATB1-shRNA1 MDA or SATB1-shRNA2 MDA cells, respectively. For overexpression of SATB1, full length of SATB1 including 3′UTR was cloned into retroviral vector pLXSN (Clontech, Mountain View, Calif.), and the viral solution was produced using PT67 package cell lines. Hs578T cells were infected with this viral solution, and stably infected cells were selected by G418 at 0.8 mg/ml for 5 days. The status of SATB1 level in manipulated MDA-MB-231 and Hs578T cells were examined by Western blot and real-time RT-PCR.
To evaluate the change of gene expression level depending on SATB1 status, semi-quantitative or real-time RT-PCR analysis of selected genes was performed (primer sequences are available upon request). Total RNA was extracted for cell lines using TR1 reagent (Sigma) followed by RNA clean-up with RNeasy Mini kit (Qiagen, Valencia, Calif.). For semi-quantitative RT-PCR, 5 μg of total RNA was reverse-transcribed into single stranded cDNA using Superscript II RNaseH-reverse transcriptase (Invitrogen) according to the protocol supplied with the kit. PCR cycle was controlled starting from 25 to 40 cycles upon gene-specific primers (20 ng of cDNA/reaction). Each cycle consisted of the following steps, using GeneAmp PCR system 9700 (PerkinElmer Inc., Fremont, Calif.); 94° C. for 30 s, 55° C. for 30 s, and 72° C. for 60 s. PCR products were separated on 1.5% agarose gels and visualized them by staining with ethidium bromide. SYBR Green PCR Core Reagents system was used for real-time monitoring of amplification on ABI 7500 Fast Real-time PCR System (Applied Biosystems, Foster City, Calif.). Absolute quantification method was employed to quantify target DNA fragments in triplicate with following cycling condition; 95° C. for 2 min, followed by 40 cycles of 95° C. for 3 s and 60° C. for 30 s.

MDA-MB-231 cells [1] = assay: Cell morphology and immunostaining in 3D Matrigel culture; type: cell-based, human; details: F-actin, β-catenin, integrin α6 immunostaining
Experimental: Changes in cell morphology. Referring now to FIG. 5, phase contrast micrographs of MDA-MB-231 control cells (control shRNA) or SATB1-shRNA1 MDA cells (SATB1-shRNA1) cultured on plastic (2D) and matrigel (3D) are shown. Major differences in cell morphology were observed when SATB1-shRNA1 MDA cells were grown in 3D culture, compared to control cells. The cell morphology was changed from stellate-like scattered (MDA-MB-231 with control shRNA) to spherical structures (MDA-MB-231 with SATB1-shRNA). […] In addition, MDA-MB-231 cells expressing SATB1-shRNA were able to basally deposit and organize a basement membrane on Matrigel, showing the characteristic acini formation, even though there was a minor difference in morphology as observed in MCF10A control cells.
Immunostaining of cells in culture. Total 1×10^4 cells mixed with Matrigel (5 mg/mL) were plated in 6-well plates pre-coated in a thick layer (1 mm) of Matrigel. Solidified Matrigel was overlaid with Growth medium (DMEM), and renewed at every 4 days. Colony formation and cell morphology was observed under light microscopy after 3 days to 14 days.
Cells were fixed in 4% paraformaldehyde, permeablized in 0.1% Triton X100, and blocked in 5% BSA. […] Staining was detected with secondary Alexa Fluor 488 and/or Alexa Fluor 594 Abs (Molecular Probes). […]

MDA-MB-231 cells [2] = assay: Tumor growth in mammary fat pads of athymic nude mice; type: in vivo, mouse; details: 6 mice, clone or pool of cells; controls formed large tumors within 39 days (6/6)
Description: We injected control and SATB1-shRNA1 cells into the fourth mammary fat pads of athymic nude mice and monitored tumor growth.

MDA-MB-231 cells [3] = assay: Cell growth assay on plastic (2D) and Matrigel (3D); type: cell-based, human; details: 2D and 3D cultures up to 11 days, compared with parental cell line and control cells
Description: Reduction of cell proliferation rate. We examined whether loss of SATB1 expression affects cancer cell proliferation by culturing SATB1-shRNA1 MDA and SATB1-shRNA2 MDA cells on plastic dish {two-dimensional (2D) culture} or on a reconstituted basement membrane derived from Engelbreth-Holm-Swarm Tumor (Matrigel™) {three-dimensional (3D) culture}.
Cell Growth Assay. […] Growth medium were renewed every 4 days. Cells were harvested by trypsin treatment, and counted at each time point using a cell counter (Beckman Coulter, Inc.; Fullerton, Calif.) and haematocytometer. […] Cells were treated with dispase (BD Biosciences, Inc.) for 2 h at 37° C. to be isolated from Matrigel, incubated with trypsin for further 5 min, and counted using a haematocytometer. […]

MDA-MB-231 cells [4] = assay: Gene expression profiling (Affymetrix and Codelink microarrays); type: cell-based, human; details: >1.5-fold, under both plastic and Matrigel culture, versus control shRNA
Description: We performed gene expression profiling on MDA-MB-231 cells expressing either control shRNA or SATB1-shRNA1 grown in culture. […] We also categorized those affected genes based on the gene ontology (GO)(URL: <http//www.geneontology.org/index.shtml>) annotation.

MDA-MB-231 cells [5] = assay: Boyden chamber invasion assay; type: cell-based, human; details: remaining invasiveness
Experimental: Boyden chamber assay. Boyden chamber chemo-migration assays were performed using a 24-well chemotaxis chamber (BD biosciences, Inc.). Breast cancer cells were seeded in triplicate at 50,000 cells/well onto the upper chambers with a 8 μm polycarbonate filter membrane coated with diluted Matrigel (10-25%) (BD biosciences, Inc.), and incubated at 37° C. in humidified 5% CO2 for 20 hrs. Conditioned media derived from NIH3T3 fibroblast cultures was used as a chemoattractant in the lower chambers. The migrated cells on underside of chambers were fixed in 10% (wt/vol) buffered-formalin and stained with crystal violet. After removal of cells remaining in the top chamber with a cotton swab, the numbers of cells that had migrated through the pores were assessed by light microscopy.

MDA-MB-231 cells [6] = assay: Experimental metastasis assay, tail vein injection into athymic mice, lung nodules; type: in vivo, mouse; details: 1×10^6 cells i.v., nine weeks, six mice
Experimental: The removal of SATB1 from MDA-MB-231 (aggressive) cells diminished metastatic activity: SATB1-shRNA1 MDA, SATB1-shRNA2 MDA, and control cells (1×10^6 cells) were injected intravenously into the lateral tail vein of 6-week-old athymic mice to evaluate metastasis of these cancer cell lines to lung. In mice, the metastasis of orthotopically grown tumors derived from human MDA-MB-231 cells is a relatively rare event. Therefore, by directly introducing cells into the circulation, we examined the requirement of SATB1 in cancer cell survival in circulation and extravasation to and growth in the lung. By nine weeks after tumor-cell injection, the lungs of mice injected with the control cells had formed numerous nodules, ranging in number from 125 to 160 per lung in all six mice analyzed (FIG. 11a,b). […]
1×10^6 cells MDA-MB-231 cells expressing control-shRNA, SATB1-shRNA1 or SATB1-shRNA2 MDA cells were injected into the tail veins of each mouse, and lungs were examined for metastatic nodules (arrows) 9 weeks later. […] In FIG. 11b, total numbers of metastatic lung nodules from individual mice were counted under a dissection microscope. For lungs of representative mice indicated, human SATB1 expression levels in human breast cancer cells colonized in lungs were analyzed by RT-PCR using human GAPDH as a loading control, with the use of human SATB1 and GAPDH specific oligomers. […]

B1: SATB1-shRNA1: shRNA against the SATB1 coding region, target GGATTTGGAAGAGAGTGTC (SEQ ID NO: 8); SEQ ID NOs: 4/5, expressed from pSUPER-puro (nucleic acid)
chain 1: GATCCCCGGATTTGGAAGAGAGTGTCTTCAAGAGAGACACTCTCTTCCAAATCCTTTTTGGAAA
chain 2: AGCTTTTCCAAAAAGGATTTGGAAGAGAGTGTCTCTCTTGAAGACACTCTCTTCCAAATCCGGG
modifications: target site or template, no part of the molecule
Expression of SATB1 was lowered by (SATB1): 70%
SATB1 expression levels (SATB1): 30.4%±3.7
SATB1 expression (in words) (SATB1): greatly reduced
cell morphology in 3D culture (MDA-MB-231 cells [1]): organized and polarized morphology, forming acinus-like structures
tumor growth in mammary fat pads (MDA-MB-231 cells [2]): either no tumors or greatly reduced tumor growth
proliferation rates (MDA-MB-231 cells [3]): significantly reduced
downregulated genes upon SATB1 depletion (Tree 1) (MDA-MB-231 cells [4]): 409 genes
upregulated genes upon SATB1 depletion (Tree 2) (MDA-MB-231 cells [4]): 456 genes
invasiveness compared with host MDA-MB-231 cells (MDA-MB-231 cells [5]): 20%

B2: SATB1-shRNA2: shRNA against the SATB1 3′UTR, target GTCCACCTTGTCTTCTCTC (SEQ ID NO: 9); SEQ ID NOs: 6/7, expressed from pSUPER-puro (nucleic acid)
chain 1: GATCCCCGTCCACCTTGTCTTCTCTCTTCAAGAGAGAGAGAAGACAAGGTGGACTTTTTGGAAA
chain 2: AGCTTTTCCAAAAAGTCCACCTTGTCTTCTCTCTCTCTTGAAGAGAGAAGACAAGGTGGACGGG
modifications: the letters are possibly those of the target site
Expression of SATB1 was lowered by (SATB1): 90%
SATB1 expression levels (SATB1): 12.5%±5.2
SATB1 expression (in words) (SATB1): greatly reduced
cell morphology in 3D culture (MDA-MB-231 cells [1]): organized and polarized morphology, forming acinus-like structures
proliferation rates (MDA-MB-231 cells [3]): significantly reduced
lung metastases observed (in words) (MDA-MB-231 cells [6]): not observed in five out of six mice
number of lung metastases (nodules per lung) (MDA-MB-231 cells [6]; control cells 125 to 160 per lung): five
invasiveness compared with host MDA-MB-231 cells (MDA-MB-231 cells [5]): 20%
